Conditions: Bacillus amyloliquefaciens; pH 6.3; 25 °C; Urea; Fluorescence; MES 1.00 M; NaCl 613 mM; reversible: yes; whole UniProt chain shown

B1: Ribonuclease wild type, P00648 (protein)
chain: MMKMEGIALKKRLSWISVCLLVLVSAAGMLFSTAAKTETSSHKAHTEAQVINTFDGVADYLQTYHKLPDNYITKSEAQALGWVASKGNLADVAPGKSIGGDIFSNREGKLPGKSGRTWREADINYTSGFRNSDRILYSSDWLIYKTTDHYQTFTKIR
denaturant midpoint (higher = more stable): 4.58 M

From FireProtDB (doi:10.1016/0022-2836(92)90557-z)
